Target: WT APP (amyloid precursor protein) stably expressed in H4-APPwt cells (human) (UniProt P05067)
Sequence (P05067 18-770): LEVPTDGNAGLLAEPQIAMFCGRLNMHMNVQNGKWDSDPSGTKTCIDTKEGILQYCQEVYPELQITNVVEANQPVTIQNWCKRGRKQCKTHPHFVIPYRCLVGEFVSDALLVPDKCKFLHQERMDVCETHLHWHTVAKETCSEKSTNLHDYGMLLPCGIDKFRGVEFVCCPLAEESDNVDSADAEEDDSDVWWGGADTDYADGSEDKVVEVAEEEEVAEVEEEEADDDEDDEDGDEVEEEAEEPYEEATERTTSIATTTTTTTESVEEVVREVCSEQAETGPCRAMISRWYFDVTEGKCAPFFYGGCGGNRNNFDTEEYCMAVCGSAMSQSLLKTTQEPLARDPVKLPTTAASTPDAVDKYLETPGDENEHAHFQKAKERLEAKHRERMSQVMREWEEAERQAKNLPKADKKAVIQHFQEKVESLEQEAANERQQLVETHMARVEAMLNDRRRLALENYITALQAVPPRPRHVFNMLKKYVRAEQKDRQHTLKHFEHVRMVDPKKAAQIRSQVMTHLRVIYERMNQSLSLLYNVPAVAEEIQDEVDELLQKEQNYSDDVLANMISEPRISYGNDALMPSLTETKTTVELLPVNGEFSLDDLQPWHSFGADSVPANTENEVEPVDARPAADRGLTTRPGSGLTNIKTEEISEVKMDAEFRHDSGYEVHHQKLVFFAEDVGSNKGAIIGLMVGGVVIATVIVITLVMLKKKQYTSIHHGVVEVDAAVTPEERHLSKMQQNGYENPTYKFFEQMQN

Sequence of GAL3BP (preparation not stated) (Q08380 19-585): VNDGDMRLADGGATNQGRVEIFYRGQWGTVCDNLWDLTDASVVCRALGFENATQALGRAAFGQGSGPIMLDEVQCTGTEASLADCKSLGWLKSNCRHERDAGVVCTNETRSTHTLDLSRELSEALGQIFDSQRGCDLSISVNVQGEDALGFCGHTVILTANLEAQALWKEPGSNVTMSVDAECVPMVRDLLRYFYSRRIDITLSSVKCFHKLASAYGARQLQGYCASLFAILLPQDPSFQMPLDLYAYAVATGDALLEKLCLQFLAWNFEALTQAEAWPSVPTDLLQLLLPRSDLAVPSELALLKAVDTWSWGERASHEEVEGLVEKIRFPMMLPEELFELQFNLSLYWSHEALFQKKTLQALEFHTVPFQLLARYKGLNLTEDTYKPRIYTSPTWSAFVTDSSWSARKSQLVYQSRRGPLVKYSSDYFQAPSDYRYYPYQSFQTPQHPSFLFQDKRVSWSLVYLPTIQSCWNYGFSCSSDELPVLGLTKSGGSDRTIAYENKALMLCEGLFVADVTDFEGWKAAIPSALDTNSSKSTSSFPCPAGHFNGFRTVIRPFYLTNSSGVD

“GAL3BP (preparation not stated) (from UniProt Q08380 19-585) (natural protein)” gave a suppression of Aβ40 and Aβ42 production in H4-APPwt cells by GAL3BP of 30%.

From publication PMC7076203
